Data from article PMC3959648, “Screening protein – Single stranded RNA complexes by NMR spectroscopy for structure determination☆”.

Tests used:
Conditions in all cases: protein: recombinant; tags: N-terminal His tag removed by TEV
T-STAR KH [1] = target: T1, T-STAR KH (UniProt O75525 50-160); assay: NMR 15N-1H HSQC CSP; fast exchange; T-STAR KH: 10 mM Tris-HCl pH 7 (also given as pH 6.5, 50 mM NaCl, 30 C); Sam68 KH: 20 mM sodium phosphate pH 7.0, 50 mM NaCl, 20 C; about 0.2 mM protein, protein:RNA 1:0.5 and 1:1
T1 sequence: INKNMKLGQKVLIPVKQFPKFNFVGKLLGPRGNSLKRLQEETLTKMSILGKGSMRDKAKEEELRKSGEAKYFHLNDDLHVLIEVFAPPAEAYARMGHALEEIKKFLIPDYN

T-STAR KH-QUA2 = target: T2, T-STAR KH-QUA2 (UniProt O75525 50-183); assay: NMR 15N-1H HSQC CSP; T-STAR KH: 10 mM Tris-HCl pH 7 (also given as pH 6.5, 50 mM NaCl, 30 C); Sam68 KH: 20 mM sodium phosphate pH 7.0, 50 mM NaCl, 20 C; about 0.2 mM protein, protein:RNA 1:0.5 and 1:1
T2 sequence: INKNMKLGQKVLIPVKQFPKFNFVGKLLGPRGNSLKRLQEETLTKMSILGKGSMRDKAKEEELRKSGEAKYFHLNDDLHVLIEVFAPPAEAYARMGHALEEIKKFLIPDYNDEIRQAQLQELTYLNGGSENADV

Sam68 KH [2] = target: T3, Sam68 KH (UniProt Q07666 150-260); assay: NMR 15N-1H HSQC CSP; slow exchange; strong affinity; T-STAR KH: 10 mM Tris-HCl pH 7 (also given as pH 6.5, 50 mM NaCl, 30 C); Sam68 KH: 20 mM sodium phosphate pH 7.0, 50 mM NaCl, 20 C; about 0.2 mM protein, protein:RNA 1:0.5 and 1:1
T3 sequence (Q07666 150-260): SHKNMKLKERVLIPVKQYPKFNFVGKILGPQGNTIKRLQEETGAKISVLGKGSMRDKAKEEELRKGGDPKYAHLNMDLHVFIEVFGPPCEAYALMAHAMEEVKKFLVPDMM

T-STAR KH [3] = target: T1, T-STAR KH; assay: NMR 15N-1H HSQC CSP; fast to intermediate exchange; higher affinity than AAAUAA; T-STAR KH: 10 mM Tris-HCl pH 7 (also given as pH 6.5, 50 mM NaCl, 30 C); Sam68 KH: 20 mM sodium phosphate pH 7.0, 50 mM NaCl, 20 C; about 0.2 mM protein, protein:RNA 1:0.5 and 1:1
Sam68 KH [4] = target: T3, Sam68 KH; assay: NMR 15N-1H HSQC CSP; T-STAR KH: 10 mM Tris-HCl pH 7 (also given as pH 6.5, 50 mM NaCl, 30 C); Sam68 KH: 20 mM sodium phosphate pH 7.0, 50 mM NaCl, 20 C; about 0.2 mM protein, protein:RNA 1:0.5 and 1:1
T-STAR KH [5] = target: T1, T-STAR KH; assay: NMR TOCSY; 100% D2O; chemical exchange, possibly multiple registers; T-STAR KH: 10 mM Tris-HCl pH 7 (also given as pH 6.5, 50 mM NaCl, 30 C); Sam68 KH: 20 mM sodium phosphate pH 7.0, 50 mM NaCl, 20 C; about 0.2 mM protein, protein:RNA 1:0.5 and 1:1

## AAAUAA (ssRNA)
T-STAR KH [1]
  binding result: binds
T-STAR KH-QUA2
  binding result: binds

## AUUAAA (ssRNA)
Sam68 KH [2]
  binding result: binds

## AAAAAA (ssRNA) [AAAAAA (polyA 6mer)]
T-STAR KH [3]
  binding result: binds

## UUUUUU (ssRNA) [UUUUUU (polyU 6mer)]
Sam68 KH [4]
  binding result: no binding

## UAAAAUUUUU (ssRNA)
T-STAR KH [5]
  binding result: binds

## UAAAUAAUU (ssRNA)
T-STAR KH [5]
  binding result: binds
